This is an account of results in patent US20180094059A1 (UNIVERSITAT STUTTGART, published 2018).

The target of assay [1] is T1, EGFR on EGFR-positive tumor cell lines (UniProt P00533 25-1210, limits assumed). Description: cell-based or functional assay.
For another assay, the target named is T2, TRAIL-R1-Fc (human, UniProt O00220 24-239).
T2 construct: extracellular domain; also called DR4-Fc; not shown: Fc-part
In words: ELISA, coated DR4-Fc (3 µg/ml), anti-Flag-HRP detection. (In an ELISA, binding on a coated surface is turned into a signal by an enzyme label.)

Assay [2] deals with T3, TRAIL-R2-Fc (human, UniProt O14763 56-210).
T3 construct: extracellular domain; also called DR5-Fc; DR5-Fc fusion protein; not shown: Fc-part
Description: ELISA, coated DR5-Fc (3 µg/ml), anti-Flag-HRP detection.

In a further assay the target is T4, DcR2-Fc (human, UniProt Q9UBN6 56-211).
T4 construct: extracellular domain; also called TRAIL-R4-Fc; not shown: Fc-part
T4 sequence (looked up): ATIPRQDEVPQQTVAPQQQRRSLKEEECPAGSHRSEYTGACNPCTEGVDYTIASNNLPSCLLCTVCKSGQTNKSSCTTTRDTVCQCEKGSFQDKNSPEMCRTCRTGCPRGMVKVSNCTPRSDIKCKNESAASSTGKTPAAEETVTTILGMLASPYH
In words: ELISA, coated DcR2-Fc (3 µg/ml), anti-Flag-HRP detection.

A further assay concerns the target T5, EGFR-Fc (UniProt P00533 25-645).
T5 construct: also called purified EGFR-Fc; not shown: Fc part
Description: ELISA, EGFR-Fc.

Assay [3] deals with T1, EGFR on EGFR-positive tumor cell lines. In words: flow cytometry, HCT116 cells. A general note: A flow cytometer gives signals particle by particle.
The target is the same in assay [4]. In words: flow cytometry, Colo205 cells.
For the next assay, the target named is T6, HER3-Fc (UniProt P21860 20-643).
T6 construct: not shown: Fc part
Description: ELISA, HER3-Fc.

Assay [5] has as its target T3, TRAIL-R2-Fc. In words: ELISA, TRAIL-R2-Fc.
Description: (§1) The new scTRAIL₃-[sequence] fusion proteins were evaluated concerning their ability to bind to their corresponding target antigen and TRAIL-R2 by ELISA as well as by IF flow cytometry using intact Colo 205 cells. Antigen binding was analyzed in ELISA using Fc fusion proteins of EGFR, HER2 and HER3.

Description for DcR2-Fc: (§2) The binding properties of the scTRAIL₃-fusion proteins to all five human TRAIL receptors were analyzed via ELISA. The extracellular domain (ECD) of the human death receptors (DR) 4 (TRAIL-R1) and 5 (TRAIL-R2), or of the human decoy receptors (DcR) 1 (TRAIL-R3) and 2 (TRAIL-R4) as well as human osteoprotegerin (OPG) was fused to the N-terminus of the Fc-part and was expressed in transiently transfected HEK293 cells. ELISA-plates were coated with ECD-Fc or OPG-Fc fusion proteins (3 μg/ml). […] Bound scTRAIL₃-fusion proteins were detected via HRP-conjugated anti-Flag antibody.
Description for HER3-Fc: Binding of targeted dimeric scTRAIL₃-[sequence] fusion proteins to EGFR-Fc (A), HER2-Fc (B), and HER3-Fc (C) was analyzed by ELISA. Optical density was measured at 450 nm. Data are represented as mean±S.D. (n=3).
as §1
Description for TRAIL-R1-Fc: as §2

B1: Db10-Glyco-scTRAIL3-FAVSGAA (other)
chain: LEASDYKDDDDKGAEVQLVESGGGLVQPGGSLRLSCAASGFSLTNYGVHWVRQAPGKGLEWLGVIWSGGNTDYNTPFTSRFTISRDNSKNTLYLQMNSLRAEDTAVYYCARALTYYDYEFAYWGQGTTVTVSSGGGGSGGGGSDIQLTQSPSFLSASVGDRVTITCRASQSIGTNIHWYQQKPGKAPKLLIKYASESISGVPSRFSGSGSGTEFTLTISSLQPEDFATYYCQQNNNWPTTFGAGTKLEIKRAAAGNGTSNGTSEFGGAAAHITGTRGRSNTLSSPNSKNEKALGRKINSWESSRSGHSFLSNLHLRNGELVIHEKGFYYIYSQTYFRFQEEIKENTKNDKQMVQYIYKYTSYPDPILLMKSARNSCWSKDAEYGLYSIYQGGIFELKENDRIFVSVTNEHLIDMDHEASFFGAFAVSGAAAHITGTRGRSNTLSSPNSKNEKALGRKINSWESSRSGHSFLSNLHLRNGELVIHEKGFYYIYSQTYFRFQEEIKENTKNDKQMVQYIYKYTSYPDPILLMKSARNSCWSKDAEYGLYSIYQGGIFELKENDRIFVSVTNEHLIDMDHEASFFGAFAVSGAAAHITGTRGRSNTLSSPNSKNEKALGRKINSWESSRSGHSFLSNLHLRNGELVIHEKGFYYIYSQTYFRFQEEIKENTKNDKQMVQYIYKYTSYPDPILLMKSARNSCWSKDAEYGLYSIYQGGIFELKENDRIFVSVTNEHLIDMDHEASFFGAFAVS
modifications: glycosylated connecting peptide
notes: also called Db10hu225-Glyco-scTRAIL3-FAVSGAA; Db10-glyco-scTRAIL3-FAVSGGA
In the case of B1, in assay [1], the “EC50 of cell death induction, Colo205, with Bortezomib” value stood at 0.013 nM; the “EC50 of cell death induction, Colo205, with Bortezomib + Cetuximab” value was 0.066 nM; the “EC50 of cell death induction, HCT116, with Bortezomib” value is 0.039 nM; the “EC50 of cell death induction, HCT116, with Bortezomib + Cetuximab” value amounted to 0.298 nM. Besides, in [1], the “EC50 of cell death induction, HT1080, with Bortezomib” value was 0.0007 nM and the “EC50 of cell death induction, HT1080, with Bortezomib + Cetuximab” value stood at 0.008 nM. Moreover, the binding result with TRAIL-R1-Fc is “binds”. Also, in the assay with TRAIL-R2-Fc [2], the binding result is given as “binds”. The binding result in the assay with DcR2-Fc is listed as “binds”.

B2: anti-EGFR IgG HC-scTRAIL3-FAVSGAA (other)
heavy: ASDYKDDDDKGAEVQLVESGGGLVQPGGSLRLSCAASGFSLTNYGVHWVRQAPGKGLEWLGVIWSGGNTDYNTPFTSRFTISRDNSKNTLYLQMNSLRAEDTAVYYCARALTYYDYEFAYWGQGTTVTVSSASTKGPSVFPLAPSSKSTSGGTAALGCLVKDYFPEPVTVSWNSGALTSGVHTFPAVLQSSGLYSLSSVVTVPSSSLGTQTYICNVNHKPSNTKVDKKVEPKSCDKTHTCPPCPAPPVAGPSVFLFPPKPKDTLMISRTPEVTCVVVDVSHEDPEVKFNWYVDGVEVHNAKTKPREEQYNSTYRVVSVLTVLHQDWLNGKEYKCKVSNKGLPSSIEKTISKAKGQPREPQVYTLPPSRDELTKNQVSLTCLVKGFYPSDIAVEWESNGQPENNYKTTPPVLDSDGSFFLYSKLTVDKSRWQQGNVFSCSVMHEALHNHYTQKSLSLSPGKAAGNGTSNGTSEFGGAAAHITGTRGRSNTLSSPNSKNEKALGRKINSWESSRSGHSFLSNLHLRNGELVIHEKGFYYIYSQTYFRFQEEIKENTKNDKQMVQYIYKYTSYPDPILLMKSARNSCWSKDAEYGLYSIYQGGIFELKENDRIFVSVTNEHLIDMDHEASFFGAFAVSGAAAHITGTRGRSNTLSSPNSKNEKALGRKINSWESSRSGHSFLSNLHLRNGELVIHEKGFYYIYSQTYFRFQEEIKENTKNDKQMVQYIYKYTSYPDPILLMKSARNSCWSKDAEYGLYSIYQGGIFELKENDRIFVSVTNEHLIDMDHEASFFGAFAVSGAAAHITGTRGRSNTLSSPNSKNEKALGRKINSWESSRSGHSFLSNLHLRNGELVIHEKGFYYIYSQTYFRFQEEIKENTKNDKQMVQYIYKYTSYPDPILLMKSARNSCWSKDAEYGLYSIYQGGIFELKENDRIFVSVTNEHLIDMDHEASFFGAFAVS
light: DIQLTQSPSFLSASVGDRVTITCRASQSIGTNIHWYQQKPGKAPKLLIKYASESISGVPSRFSGSGSGTEFTLTISSLQPEDFATYYCQQNNNWPTTFGAGTKLEIKRTVAAPSVFIFPPSDEQLKSGTASVVCLLNNFYPREAKVQWKVDNALQSGNSQESVTEQDSKDSTYSLSSTLTLSKADYEKHKVYACEVTHQGLSSPVTKSFNRGEC
notes: scTRAIL3-FAVSGAA at the C-terminus of the heavy chain; also called IgG-heavy chain (HC)-scTRAIL3
In general, EC50 refers to the concentration needed to bring the measured effect to its halfway point. High values mean a less potent agent, low ones a more potent agent. Consider B2, for which the half-maximal effective concentration (EC50) was determined as 0.343 nM in the assay with EGFR-Fc, 0.118 nM in assay [3] and 0.081 nM in assay [4].

B3: scFv3M6-EHD2-scTRAIL3-FLVGGGPQRVA (other)
chain: EVQLLESGGGLVQPGGSLRLSCAASGFTFSHYVMAWVRQAPGKGLEWVSSISSSGGWTLYADSVKGRFTISRDNSKNTLYLQMNSLRAEDTAVYYCTRGLKMATIFDYWGQGTLVTVSSGGGGSGGGGSGGGGSQSALTQPASVSGSPGQSITISCTGTSSDVGSYNVVSWYQQHPGKAPKLIIYEVSQRPSGVSNRFSGSKSGNTASLTISGLQTEDEADYYCSSYAGSSIFVIFGGGTKVTVLAAAGGSGGDFTPPTVKILQSSCDGGGHFPPTIQLLCLVSGYTPGTINITWLEDGQVMDVDLSTASTTQEGELASTQSELTLSQKHWLSDRTYTCQVTYQGHTFEDSTKKCADSNGGSGGASSGGGPQRVAAHITGTRGRSNTLSSPNSKNEKALGRKINSWESSRSGHSFLSNLHLRNGELVIHEKGFYYIYSQTYFRFQEEIKENTKNDKQMVQYIYKYTSYPDPILLMKSARNSCWSKDAEYGLYSIYQGGIFELKENDRIFVSVTNEHLIDMDHEASFFGAFLVGGGPQRVAAHITGTRGRSNTLSSPNSKNEKALGRKINSWESSRSGHSFLSNLHLRNGELVIHEKGFYYIYSQTYFRFQEEIKENTKNDKQMVQYIYKYTSYPDPILLMKSARNSCWSKDAEYGLYSIYQGGIFELKENDRIFVSVTNEHLIDMDHEASFFGAFLVGGGPQRVAAHITGTRGRSNTLSSPNSKNEKALGRKINSWESSRSGHSFLSNLHLRNGELVIHEKGFYYIYSQTYFRFQEEIKENTKNDKQMVQYIYKYTSYPDPILLMKSARNSCWSKDAEYGLYSIYQGGIFELKENDRIFVSVTNEHLIDMDHEASFFGAFLV
Consider B3, for which the results for the EC50 with HER3-Fc and with TRAIL-R2-Fc [5] were 11.6 nM and 2.65 nM, respectively.

B4: anti-EGFR IgG LC-scTRAIL3-FAVSGAA (other)
heavy: ASDYKDDDDKGAEVQLVESGGGLVQPGGSLRLSCAASGFSLTNYGVHWVRQAPGKGLEWLGVIWSGGNTDYNTPFTSRFTISRDNSKNTLYLQMNSLRAEDTAVYYCARALTYYDYEFAYWGQGTTVTVSSASTKGPSVFPLAPSSKSTSGGTAALGCLVKDYFPEPVTVSWNSGALTSGVHTFPAVLQSSGLYSLSSVVTVPSSSLGTQTYICNVNHKPSNTKVDKKVEPKSCDKTHTCPPCPAPPVAGPSVFLFPPKPKDTLMISRTPEVTCVVVDVSHEDPEVKFNWYVDGVEVHNAKTKPREEQYNSTYRVVSVLTVLHQDWLNGKEYKCKVSNKGLPSSIEKTISKAKGQPREPQVYTLPPSRDELTKNQVSLTCLVKGFYPSDIAVEWESNGQPENNYKTTPPVLDSDGSFFLYSKLTVDKSRWQQGNVFSCSVMHEALHNHYTQKSLSLSPGK
light: DIQLTQSPSFLSASVGDRVTITCRASQSIGTNIHWYQQKPGKAPKLLIKYASESISGVPSRFSGSGSGTEFTLTISSLQPEDFATYYCQQNNNWPTTFGAGTKLEIKRTVAAPSVFIFPPSDEQLKSGTASVVCLLNNFYPREAKVQWKVDNALQSGNSQESVTEQDSKDSTYSLSSTLTLSKADYEKHKVYACEVTHQGLSSPVTKSFNRGECAAGNGTSNGTSEFGGAAAHITGTRGRSNTLSSPNSKNEKALGRKINSWESSRSGHSFLSNLHLRNGELVIHEKGFYYIYSQTYFRFQEEIKENTKNDKQMVQYIYKYTSYPDPILLMKSARNSCWSKDAEYGLYSIYQGGIFELKENDRIFVSVTNEHLIDMDHEASFFGAFAVSGAAAHITGTRGRSNTLSSPNSKNEKALGRKINSWESSRSGHSFLSNLHLRNGELVIHEKGFYYIYSQTYFRFQEEIKENTKNDKQMVQYIYKYTSYPDPILLMKSARNSCWSKDAEYGLYSIYQGGIFELKENDRIFVSVTNEHLIDMDHEASFFGAFAVSGAAAHITGTRGRSNTLSSPNSKNEKALGRKINSWESSRSGHSFLSNLHLRNGELVIHEKGFYYIYSQTYFRFQEEIKENTKNDKQMVQYIYKYTSYPDPILLMKSARNSCWSKDAEYGLYSIYQGGIFELKENDRIFVSVTNEHLIDMDHEASFFGAFAVS
notes: scTRAIL3-FAVSGAA at the C-terminus of the kappa light chain through a 15 aa peptide with two N-glycosylation sites; also called IgG-light chain (LC)-scTRAIL3
As for B4, the EC50 in the assay with EGFR-Fc came to 0.46 nM; in assay [3], 0.181 nM; in [4] it was 0.148 nM.

B5: anti-EGFR IgG LC/HC-scTRAIL3-FAVSGAA (other)
heavy: B2 heavy
light: B4 light
notes: scTRAIL3-FAVSGAA on both light and heavy chains (tetrameric form)
For B5, the EC50 with EGFR-Fc amounted to 0.315 nM; in assay [3] it was 0.091 nM; in assay [4], 0.146 nM.
